Biological target: Medicago truncatula L-histidinol dehydrogenase (Medicago truncatula)
Assay: SEC; HiLoad Superdex 200 16/60; 25 mM Hepes-NaOH pH 7.5, 100 mM KCl, 50 mM NaCl, 1 mM TCEP; data not shown

stoichiometry N: 2
Substance: Medicago truncatula L-histidinol dehydrogenase (enzyme)

Source: PMC5585171
